{"source": "IntAct's records for PubMed 17210637", "molecular_target": "merl_human NF2 (UniProt P35240)", "sequence (P35240 whole entry)": "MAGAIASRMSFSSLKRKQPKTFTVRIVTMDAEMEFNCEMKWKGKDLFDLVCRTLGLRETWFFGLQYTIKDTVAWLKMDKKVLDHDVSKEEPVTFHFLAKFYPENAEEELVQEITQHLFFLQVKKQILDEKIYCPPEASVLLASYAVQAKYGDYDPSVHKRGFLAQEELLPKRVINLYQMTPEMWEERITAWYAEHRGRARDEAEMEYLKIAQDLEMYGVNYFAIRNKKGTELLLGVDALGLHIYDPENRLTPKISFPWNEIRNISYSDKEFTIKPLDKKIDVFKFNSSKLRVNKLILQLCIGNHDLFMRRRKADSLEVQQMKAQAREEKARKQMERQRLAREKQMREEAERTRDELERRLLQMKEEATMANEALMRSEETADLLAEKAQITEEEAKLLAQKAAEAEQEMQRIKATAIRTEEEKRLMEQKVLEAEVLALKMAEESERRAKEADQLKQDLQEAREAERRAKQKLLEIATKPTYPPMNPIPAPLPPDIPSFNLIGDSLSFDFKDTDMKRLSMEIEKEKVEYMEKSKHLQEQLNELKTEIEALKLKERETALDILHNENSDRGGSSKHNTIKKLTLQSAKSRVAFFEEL"}
{"substance": "GTP-binding protein 4 (Homo sapiens) (from UniProt Q9BZE4) R394A;K395A", "values": [{"measurement": "effect of a mutation on the interaction", "result": "decreasing interaction"}]}
